# In IntAct's records for PubMed 22064073:
# B1: PAX-interacting protein 1 (Homo sapiens), Q6ZW49-1 (parent)
# chain: MVFLQNHVRFFLESLPAFLRVLIQAGALCWSLPELSQGEVGKGACPAEVGKHRDHLPSSDPVLMQAEASVVMCWVSSEDRSALWALVTFYGGDCQLTLNKKCTHLIVPEPKGEKYECALKRASIKIVTPDWVLDCVSEKTKKDEAFYHPRLIIYEEEEEEEEEEEEVENEEQDSQNEGSTDEKSSPASSQEGSPSGDQQFSPKSNTEKSKGELMFDDSSDSSPEKQERNLNWTPAEVPQLAAAKRRLPQGKEPGLINLCANVPPVPGNILPPEVRGNLMAAGQNLQSSERSEMIATWSPAVRTLRNITNNADIQQMNRPSNVAHILQTLSAPTKNLEQQVNHSQQGHTNANAVLFSQVKVTPETHMLQQQQQAQQQQQQHPVLHLQPQQIMQLQQQQQQQISQQPYPQQPPHPFSQQQQQQQQAHPHQFSQQQLQFPQQQLHPPQQLHRPQQQLQPFQQQHALQQQFHQLQQHQLQQQQLAQLQQQHSLLQQQQQQQIQQQQLQRMHQQQQQQQMQSQTAPHLSQTSQALQHQVPPQQPPQQQQQQQPPPSPQQHQLFGHDPAVEIPEEGFLLGCVFAIADYPEQMSDKQLLATWKRIIQAHGGTVDPTFTSRCTHLLCESQVSSAYAQAIRERKRCVTAHWLNTVLKKKKMVPPHRALHFPVAFPPGGKPCSQHIISVTGFVDSDRDDLKLMAYLAGAKYTGYLCRSNTVLICKEPTGLKYEKAKEWRIPCVNAQWLGDILLGNFEALRQIQYSRYTAFSLQDPFAPTQHLVLNLLDAWRVPLKVSAELLMSIRLPPKLKQNEVANVQPSSKRARIEDVPPPTKKLTPELTPFVLFTGFEPVQVQQYIKKLYILGGEVAESAQKCTHLIASKVTRTVKFLTAISVVKHIVTPEWLEECFRCQKFIDEQNYILRDAEAEVLFSFSLEESLKRAHVSPLFKAKYFYITPGICPSLSTMKAIVECAGGKVLSKQPSFRKLMEHKQNSSLSEIILISCENDLHLCREYFARGIDVHNAEFVLTGVLTQTLDYESYKFN
# Variants of: B1
# Settings: with h2ax_human H2AX
row,effect of a mutation on the interaction,Variant
1,disrupting interaction,T838A

# Variants of: B1
# Settings: with h2ax_human H2AX
# Remark: another data set of the same source
row,effect of a mutation on the interaction,Variant
1,disrupting interaction,K879M

# Variants of: B1
# Settings: with h2ax_human H2AX
# Remark: another data set of the same source
row,effect of a mutation on the interaction,Variant
1,disrupting interaction,R876D

# Variants of: B1
# Settings: with h2ax_human H2AX
# Remark: another data set of the same source
row,effect of a mutation on the interaction,Variant
1,decreasing interaction,E1016A

# Variants of: B1
# Settings: with h2ax_human H2AX
# Remark: another data set of the same source
row,effect of a mutation on the interaction,Variant
1,increasing interaction,T1020A
